Results from patent US20060140889A1 (L MABS B V, published 2006).
Residue numbers refer to the chain shown, from its start.

B1: iMab122 (designed binder)
chain: NVKLVEKGGNFVENDDDLKLTCRASGRTFSSRTMGWFRQAPNDDSTNVATIRWNGGSTYYTNYGDSVKERFDIRVDQASNTVTLSMDDLQPEDSAEYNCAGTDIGDGWSGRYDYRGQGTDVTVSS
notes: 9 beta-strand iMab; E. coli, CM126; not shown: C-terminal linker, VSV tag and 6x His tag of vector CM126
B2: iMab111 (designed binder)
chain: NVKLVCKGGNFVENDDDLKLTCRAEGYTIGPYCMGWFRQAPNDDSTNVATINMGGGITYYGDSVKERFDIRRDNASNTVTLSMDDLQPEDSAEYNCAGDSTIYASYYECGHGLSTGGYGYDSHYRCQGTDVTVSS
notes: iMab100 derivative with two extra cysteines in the core; E. coli, CM126
B3: iMab116 (designed binder)
chain: B2 chain with C6E, C96G, A104G, C126G
notes: iMab100 derivative lacking one core cysteine; E. coli, CM126; also called iMab16; not shown: C-terminal linker, VSV tag and 6x His tag of vector CM126
B4: iMab115 (designed binder)
chain: B2 chain with C6E, N74Q, C126G
notes: iMab100 with the asparagine of the putative N-glycosylation site in AR3 changed to glutamine; expressed in E. coli as a 21 kD protein; also called iMab15
B5: iMab142-xx-0002 (designed binder, not shown: small tags and cut ends)
chain: MNVKLVEKGGNFVENDDDLKLTCRAEGYTIGPYSMGWFRQAPNDDSTNVSCINMGGGITYYGDSVKERFDIRRDNASNTVTLSMDDLQPEDSAVYNCAADWWDGFTYGSTWYNPSSYDYRGQGTDVTVSS
notes: also called iMab142-xx-002
B6: iMab148-xx-0002 (designed binder)
chain: B5 chain with K4H, K8R, K20N, S50A, C51T, K66D
notes: Derivative of iMab142-xx-0002 in which all lysine residues were replaced; xx = C-terminal tag not specified

How the values were obtained:
[1] = biological target: T1, chicken lysozyme (chicken, UniProt P00698 19-147); assay: ELISA, well coated with lysozyme (100 ug/ml) and blocked with ELK, ~50 ng iMab per well, anti-VSV-HRP; urea purification
T1 construct: also called Egg White Lysozyme

[2] = biological target: T1, chicken lysozyme; assay: ELISA on lysozyme, 100-fold dilution of the protein extract
[3] = biological target: T1, chicken lysozyme; assay: ELISA
[4] = biological target: T2, bovine lactoferrin (bovine, UniProt P24627 20-708); assay: not described at this place
T2 construct: also called LF
T2 sequence (P24627 20-708 limits assumed): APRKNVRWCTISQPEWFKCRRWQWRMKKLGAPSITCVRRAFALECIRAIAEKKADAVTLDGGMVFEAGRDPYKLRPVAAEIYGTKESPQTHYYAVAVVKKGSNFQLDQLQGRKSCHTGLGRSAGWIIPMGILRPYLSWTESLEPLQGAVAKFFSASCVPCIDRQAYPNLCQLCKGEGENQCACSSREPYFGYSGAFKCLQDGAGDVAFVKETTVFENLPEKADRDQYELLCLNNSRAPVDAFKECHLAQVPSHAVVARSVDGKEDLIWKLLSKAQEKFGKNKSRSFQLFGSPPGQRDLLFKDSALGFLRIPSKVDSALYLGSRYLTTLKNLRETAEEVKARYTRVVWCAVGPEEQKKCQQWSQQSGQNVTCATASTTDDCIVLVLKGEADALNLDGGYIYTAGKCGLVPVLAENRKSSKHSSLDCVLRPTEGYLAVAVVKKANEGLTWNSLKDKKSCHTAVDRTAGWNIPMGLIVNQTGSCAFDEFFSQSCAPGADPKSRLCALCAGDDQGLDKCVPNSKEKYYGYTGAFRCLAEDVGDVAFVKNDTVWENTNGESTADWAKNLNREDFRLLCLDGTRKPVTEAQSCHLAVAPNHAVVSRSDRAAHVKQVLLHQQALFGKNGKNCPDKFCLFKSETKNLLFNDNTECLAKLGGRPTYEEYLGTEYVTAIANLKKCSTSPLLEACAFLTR

T1 sequence (P00698 19-147 limits assumed): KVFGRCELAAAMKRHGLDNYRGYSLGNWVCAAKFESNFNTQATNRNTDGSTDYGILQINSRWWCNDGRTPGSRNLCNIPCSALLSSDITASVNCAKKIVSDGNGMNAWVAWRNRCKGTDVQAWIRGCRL

Binder	Absorbtion (450 nm) [1] [absorbance at 450 nm]	binding result [4]	other results
B1	0.271		
B2	0.42		signal over background signal (fold) [2]: ~20 fold
B3	0.238		
B4			binding result [3]: binds
B5		binds	
B6		binds	
